One assay has as its target human ferritin (human, UniProt P02794 2-183; P02792 2-175, limits assumed). In words: method not stated.
In assay [1] the target is T1, human liver ferritin (Calbiochem) (human, UniProt P02794 2-183; P02792 2-175).
T1 construct: Natural ferritin is a multimer of acidic (H) and basic (L) subunits; Adsorbed on plates or tubes in the assays; also called pure ferritin
As to the kind of experiment: solid-phase radioimmunoassay, ferritin immobilised at 5 µg/ml on tubes, 90Y-labelled conjugate. Here is the method:
(§1) A solid-phase radioimmunoassay was performed using ¹¹¹In- and ⁹⁰y-labelled antibodies. Maxisorp tunes (Nunc) were incubated overnight at 4° C. with 1.5 to 10 μg/ml ferritin in PBS. After washing, they were blocked by PBS-0.5% BSA for 2 hours at room temperature. 6.25×10³, 12.5×10³ and 25×10³CPM (200 μl) of the antibodies were added in the coated tubes. The activity in each tube was counted in the gamma counter, then the tubes were washed three times with PBS-0.4% Tween-20 and the remaining activity counted. The difference between activities with and without the radiolabelled-antibody solutions indicated the percentage of bound-antibody. For evaluation of non specific binding to ferritin, a 100-fold excess of unconjugated antibody was added to the most concentrated radiolabelled-antibody solution. Non specific binding of the antibody was assessed on uncoated tubes. […] These binding percentages were calculated taking into account small differences in the labelling efficiencies of the three compounds on the day of the experiment.
(§2) ^aFerritin was immobilised at 5 μg/ml on tubes, then the indium or yttrium conjugated antibodies were incubated at three dilutions ([…]) Results are expressed as the mean of the percentage of bound antibody after washing the tubes. Non specific binding of the antibodies were less than 2%. ^bFive serial dilutions of fixed and permeabilized CAPAN-1 cells were incubated with the three radiolabelled compounds. After washing, the activity bound to the cells was counted in a gamma counter. Results were analysed using the GraphPad software; linear regression analysis of (Total CPM/Bound CPM) = f(cells dilution) were very accurate with r² > 0.99 for all three conjugates.

The target in assay [2] is T1, human liver ferritin (Calbiochem). As to the kind of experiment: solid-phase radioimmunoassay, ferritin immobilised at 5 µg/ml on tubes, 111In-labelled conjugate. Here is the method: as §1, §2
The target of assay [3] is T2, ferritin in fixed and permeabilized CAPAN-1 cells (human, UniProt P02794 1-183; P02792 2-175).
T2 construct: whole, on cells; Endogenous ferritin, over-expressed by CAPAN-1 cells; The cells were fixed and permeabilized, so the ferritin reached is inside the cells; also called cells expressing ferritin
T2 sequence (P02794 whole entry, chain 1 of 2): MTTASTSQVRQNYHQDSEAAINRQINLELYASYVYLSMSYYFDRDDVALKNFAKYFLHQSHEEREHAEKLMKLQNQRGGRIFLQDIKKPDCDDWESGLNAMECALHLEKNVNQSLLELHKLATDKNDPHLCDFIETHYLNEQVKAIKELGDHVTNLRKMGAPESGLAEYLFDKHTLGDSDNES
T2 sequence (P02792 2-175, chain 2 of 2): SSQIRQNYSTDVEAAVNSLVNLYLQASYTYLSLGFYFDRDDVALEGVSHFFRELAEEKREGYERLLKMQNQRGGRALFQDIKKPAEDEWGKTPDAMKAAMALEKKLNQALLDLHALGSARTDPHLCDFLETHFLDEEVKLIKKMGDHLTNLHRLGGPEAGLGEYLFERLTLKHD
In words: Lindmo assay on fixed and permeabilized CAPAN-1 cells, 111In-labelled conjugate. Here is the method:
Immunoreactivity of the immunoconjugates was assessed on cells expressing ferritin using the method described by Lindmo et al Determination of the immunoreactive fraction of radiolabeled monoclonal antibodies by linear extrapolation to binding at infinite antigen excess. J Immunol Methods 1984; 72 (1):77-89.
The CAPAN-1 cells are a relevant model for human pancreatic cancer (Kyriazis et al Human pancreatic adenocarcinoma line Capan-1 in tissue culture and the nude mouse:morphologic, biologic, and biochemical characteristics. Am J Pathol 1982; 106(2):250-60.). This cell line was established from a liver metastasis of a human pancreatic ductal adenocarcinoma, is tumorigenic and metastatic in nude mice and over-expresses ferritin. […] CAPAN-1 cells were grown in RPMI, 10% foetal calf serum and 2 mM L-glutamine. Cells were harvested at 70-85% confluence using trypsin, washed and resuspended in PBS-0.5% BSA. They were then fixed and permeabilized using the Intrastain kit (rako) following the manufacturer's instructions. Cells were diluted in PBS-0.5% BSA at concentrations ranging from 1.25×10⁵ to 12×10⁶ cells/ml and 500 μl of these suspensions were incubated with a fixed amount of ¹¹¹In-labeled-Ab (250 μl, 50 ng/ml, approximately 100,000CPM) for 2 hours at room temperature under agitation. Suspensions were centrifuged at 5,000×rpm for 5 minutes, the cells were washed with PBS-BSA and the activity in the pellets was counted. Nonspecific binding was determined by co-incubation of the radiolabelled-antibody with a 1.000-fold excess of cold antibody. The total radioactive counts added to each tube were divided by the cell-bound counts after subtraction of the non-specifically bound counts. These values were plotted against the reciprocal of cell dilution. After linear regression analysis, the immunoreactive fraction was obtained from the reciprocal of the intercept on the y-axis.

T1 sequence (P02794 2-183 limits assumed, chain 1 of 2): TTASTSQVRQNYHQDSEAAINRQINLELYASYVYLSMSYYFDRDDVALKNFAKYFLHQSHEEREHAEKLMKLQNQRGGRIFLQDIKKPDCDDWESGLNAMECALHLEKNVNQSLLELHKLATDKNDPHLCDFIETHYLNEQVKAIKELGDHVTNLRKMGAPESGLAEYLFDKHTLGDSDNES
T1 sequence (P02792 2-175 limits assumed, chain 2 of 2): as the sequence (P02792 2-175, chain 2 of 2) above
Chain of human ferritin (P02794 2-183 limits assumed, chain 1 of 2): as the sequence (P02794 2-183 limits assumed, chain 1 of 2) above
Chain of human ferritin (P02792 2-175 limits assumed, chain 2 of 2): as the sequence (P02792 2-175, chain 2 of 2) above

B1: murine monoclonal anti-ferritin antibody AMB8LK (antibody, V domains shown)
VH: QVQLKESGPGLVAPSQSLSITCTVSGFSLSRYSVHWVRQPPGKGLEWLGTIWGGGSTDYNSVLKSRLSISKDNSKSQVLLKVNSLQTDDTAIYYCASGPYYYTMDYWGQGTSVTVSS
VL: QIVLTQSPAILSASLGEEITLTCSASSSVTFMHWYQQKSGTSPKLLIYTTSNLASGVPSRFSGSGSGTFYSLTISSVEAEDAADYYCHQWSSYPTFGSGTKLEIKR
notes: also called unconjugated AMB8LK; native antibody
Regarding B1, the Kd (as a rule, a measure of binding affinity in units of concentration) in the assay with human ferritin amounted to 5.1 nM.

B2: Bz-CHX-A″-DTPA-AMB8LK (antibody, V domains shown)
VH: B1 VH
VL: B1 VL
modifications: about 3 Bz-CHX-A″-DTPA chelates per antibody (pSCN-Bz-CHX-A″-DTPA conjugation; sites not stated); 111In or 90Y in the radioimmunoassays
notes: also called CHX-DTPA-AMB8LK; CHX-DTPA
Consider B2, for which the entries for the “immunoreactivity (percentage of bound antibody)” value in assay [1] and in assay [2] were 98.9% and 74.8%, respectively. Also, the “immunoreactivity (immunoreactive fraction)” value in assay [3] was 43%.

B3: Bz-DOTA-AMB8LK (antibody, V domains shown)
VH: B1 VH
VL: B1 VL
modifications: about 3.2 Bz-DOTA chelates per antibody (pSCN-Bz-DOTA conjugation; sites not stated); 111In or 90Y in the radioimmunoassays
notes: also called DOTA-conjugate; 111In-DOTA-AMB8LK
Turning to B3, the figures for the “immunoreactivity (percentage of bound antibody)” value in assay [1] and in assay [2] were 73.2% and 76.8%, respectively. In addition, the “immunoreactivity (immunoreactive fraction)” value in assay [3] came out at 24%.

B4: Bz-DTPA-AMB8LK (antibody, V domains shown)
VH: B1 VH
VL: B1 VL
modifications: about 3 Bz-DTPA chelates per antibody (pSCN-Bz-DTPA conjugation; sites not stated); 111In or 90Y in the radioimmunoassays
notes: also called DTPA conjugate; 111In-DTPA-AMB8LK
As to B4, the “immunoreactivity (percentage of bound antibody)” value in assay [1] was 100%; in assay [2], 87%. For the same molecule, the “immunoreactivity (immunoreactive fraction)” value in assay [3] turned out to be 52%.
